{"source": "paper PMC8289069", "about": "“Functional requirement of terminal inverted repeats for efficient ProtoRAG activity reveals the early evolution of V(D)J recombination”", "binders": {"B1": {"name": "12RSS (dsDNA)", "DNA 1": "GATCTGGCCTGTCTTACACAGTGATACAGACCTTAACAAAAACCCTGCAG", "DNA 2": "CTGCAGGGTTTTTGTTAAGGTCTGTATCACTGTGTAAGACAGGCCAGATC"}}, "target": "T1, mRAG1F (mouse, UniProt P15919 389-456)", "T1 sequence": "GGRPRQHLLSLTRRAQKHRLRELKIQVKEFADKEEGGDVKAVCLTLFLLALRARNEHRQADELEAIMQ", "assay": "DNA-binding assay (type not stated); EMSA: 25 mM MOPS pH 7.0, 50 mM KCl, 2 mM DTT, 1.5 mM CaCl2, 2.5% glycerol, 50 nM HMGB1, 100 nM ss nonspecific oligo, ~50 nM each RAG, 25 C 20 min; pull-down: 50 mM Tris pH 7.5, 150 mM NaCl, 0.5% NP40, 5% glycerol, 1.5 mM CaCl2, 4 C", "details": "protein: recombinant; chain copies: 2; label: 5' biotin on strand 1; blunt", "data": [{"binder": "B1", "values": [{"measurement": "binding result", "result": "binds"}]}]}
